Results published in article PMC9486540.

Target: C5b6 (UniProt P13671)
Assay: BLI; as a1, but 100nM C7 pre-incubated with anti-C7 mAb TPP1653 (200nM or 2nM) before dipping the C5b6 sensors, then C8 and C9

- binding response, percent of max response in controls (with 200nM TPP1653) (% of max response in controls): 60
Substance: human complement C7 (from UniProt P10643 23-843) (natural protein)
